Results on 11 molecules are retold here after patent US20140363495A1 (US Dept. of Health and Human Services, published 2014).

B1: VNTR-3 (agonist) (peptide)
peptide: YLAPPAHGV
notes: also called pVNTR3; pVNTR-3
B2: VNTR-5 (agonist) (peptide)
peptide: YLDTRPAPV
notes: Synthetic analog with substitutions at positions 1, 2 and 9; also called pVNTR5; pVNTR-5
B3: VNTR-4 (peptide)
peptide: APDTRPAPG
notes: Synthetic 9-mer; also called pVNTR4; VNTR-4 (native)
B4: VNTR-1 (peptide)
peptide: STAPPAHNV
notes: Synthetic 9-mer; also called pVNTR1
B5: VNTR-2 (peptide)
peptide: STAPPAHGV
notes: Synthetic 9-mer; also called pVNTR2; VNTR-2 (native)
B6: P1177 (peptide)
peptide: YLIALAVCQC
notes: Synthetic 10-mer
B7: P1177(10V) (peptide)
peptide: YLIALAVCQV
B8: P1172 (peptide)
peptide: ALAIVYLIAL
notes: Synthetic 10-mer, purity >90%; also called Native 432
B9: P1172(1Y) (peptide)
peptide: YLAIVYLIAL
B10: P1240 (peptide)
peptide: SLSYTNPAV
notes: Synthetic 9-mer
B11: P1240(1Y) (peptide)
peptide: YLSYTNPAV

For the first assay, the target named is T1, HLA-A2 molecules on T2A2 cells (human).
T1 construct: whole, on cells; also called class I molecules
Nature of the assay: flow cytometry, upregulation of HLA-A2 on T2A2 cells, peptide 25 µg/mL. The procedure:
*Peptides were used at a concentration of 25 μg/mL. ^{#}Results expressed as mean fluorescence intensity (MFI).
(A flow cytometer gives signals particle by particle.)
On to B1, for which the “T2A2 Binding (MFI)” value came out at 486 MFI.
Regarding B2, the “T2A2 Binding (MFI)” value stood at 647 MFI.
Consider B3, for which the “T2A2 Binding (MFI)” value amounted to 210 MFI.
Still for that read-out and setting: the result for B4 reads 169 MFI; that for B5, 166 MFI.

The next assay deals with T1, HLA-A2 molecules on T2A2 cells. Nature of the assay: flow cytometry, upregulation of HLA-A2 on T2A2 cells, peptide 12.5 µg/mL. The protocol: *Peptides were used at a concentration of 12.5 μg/mL. ^{#}Results expressed as mean fluorescence intensity (MFI). NGEP (P703) peptide is an HLA-A2-binding peptide. CAP-7 peptide is an HLA-A3-binding CEA peptide
B6: the “T2 Binding (MFI)” value is 211 MFI.
Same read-out and setting: the result for B7 reads 299 MFI; that for B8, 249 MFI.
With B9, the “T2 Binding (MFI)” value came to 245 MFI.
Same read-out and setting: the same measure for B10: 326 MFI.
Still for that read-out and setting: the result for B11 reads 342 MFI.
